The record followed here is patent US20080118919A1.

The test addresses B42 activation domain-EE34 prey fusion protein (yeast, pJG4-5). The experiment in a line: cell-based or functional assay.

Take “λ cI-RR34 bait fusion protein (from UniProt P03034 1-237)”: the β-glucuronidase reporter activity with MU-gluc substrate, combination 6 relative to combination 5, yeast two-hybrid (fold higher than combination 5) came out at 10.
